These results are taken from a protein production outcome set (Wang et al. 2014).
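Also: failed if final PepcDB status was selected cloned or expressed and not failed if soluble or beyond.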

The data set can be described thus: label from the status in PepcDB records.
“MSDILKFSVVIPVYNGSNTVTRAVDSCLKQTTLPWEIIIVNDCSKDNTLDVLIENYQGNNIVKIYSLPKNSGVSVARNLGWDKATGDFIAFLDADDVWHPSKLEVLNELKHGYKDVSCIAHKYTENSLPEEKKIMPKCKILKFRHFLIRNYFNTSCLAVCKCIGERFNETMRYTEDHDLCLRIANKMNIYYIDLPLTSLGRPQLSKGGLSGNQWAMRKGEMKLYFHACKLRWWLFPCLPLFFLFSIAKHLLKLGMRCMK”: the protein production entry is “failed”.
Turning to “MSDKKTQTRARILGAATQALLERGAVEPSVGEVMGAAGLTVGGFYAHFQSKDALMLEAFEQLLGKRRELLGELDPGLSGKERRALAAAFYLSRKHRDAQVDAGCPLPATLAEVARLPEGFREVLSRHVEIMVTSLAESPEETDVALADLVLMIGGLALARALGPGELSDRVLRAAKQAVN”, the protein production result was “not failed”.
In the case of “MSDLLFPIISMVLLVLAEAGVLQFTGRQKVDWLDVIFNINSGHMMLWLFRCLEVLCYGLVINHFSLGLFDNAPVILLWLFTILAWDFGFYWLHRWHHEMRPLWAVHVVHHQGEHYNLSLGVRNSWYSSLTSIPFFMLLAMLGVPLQIFLAVSIIHYSWQFFNHNALTPKLGWLEKVLITPSHHRVHHLNQKQYADTNYGGTFLLWDKLFGSYSAGPEYDVGYGVKNSRLSCNPMRESNLPFLRLMGFRSFGKAIEGRYQSSPWAVGAGVILLFMLVLGYIQQYGYGIEFITSEQAVLFVLLAAGSVALGGMSDGQHWGMILWCSVTLSLLYFIVYMCSWSTLLWKGLVGILLAHCLLFVIGVGRKSLRKQYEPV”, the protein production result was “failed”.
In the case of “MSDLRTVPKHTALLIGLMIFGLFFGAGNLIFPVELGRLAGHSAPVTAAGFLVTAVGIPIVAIISSAVSGCSSVHGMTSRVSSQYATIFTCLLYLTIGPAFAIPRTATVSYEVGVAPFIQGHGPALPIFTIVFFAMTLVAALKPGKLMDWVGRYLTPLFLALLAILIVATLIHPMPTVANRPPQPPYDHQPFMHGFLDGYNTMDALASLAFAIVIIEAINQRGSTGRRDVTHITIRAGLVATIPLTLVYVSLAWLGRTSTLVVPNAANGGVVLAGVSRHYYGTAGQVLIAAIVLVACLKTAIGLVVACAEIFRRMFPAGPSVRSWVVIFSVASAIIANAGLTTIIAWSTPVLMFLYPLAITAIILGLLDPWLGASRLPHRIMTGCVVLAALPDLVRALPIQGSGTRAITHVADMVLPWASDGLGWGLPAIIGLAAGWGASLILGRPRRWGTSS”, the protein production entry is reported as “failed”.
As for “MSDNYKFFRHDNCEYFPCHKVKDKETFNCLFCYCPLYFLENCGGNKSDFNGVKDCSNCLIPHSKNGYDYIINKIREVNKEKRAKNNLTLEHHHHHH”, the protein production entry is “not failed”.
For “MSDPSAKPLQEHILIILDDAGRREVLLTETFYTIGRSPRADIRIKSQFVSRIHAVLVRKSSDDVQAAYRIIDGDEDGQSSVNGLMINGKKVQEHIIQTGDEIVMGPQVSVRYEYRRRDQFGTMPGNEQFDITLIDPGMIDDEEEIPTSVSSSPPEME”, the protein production entry was “failed”.
In the case of “MSDPYPATEAHAQRAAKSPPKSLLDRLLSLVRREPEDREGIKAILEAAHERELLDAESYAMIKGALAVSERTVADIMVPRSRMDLLDISQPLPQLLATIIETAHSRFPVYEDDRDNIIGILLAKDLLRYMLEPALDIRSLVRPAVFIPEVKRLNVLLREFRASRNHLAIVIDEHGGISGLVTMEDVLEQIVGDIEDEFDEDEEESIFPEGENQWRLTASTDISHFNATFATDLPDDEYDSVGGWLGGQLGRIPRRGDSADHDGLHIEVVRADARRALWLRVRRNAGAQPPASAAE” it was “not failed”.
